Results reported in the supplement of paper PMC9112550, “Optimization of the antimicrobial peptide Bac7 by deep mutational scanning” (BMC Biology, 2022).
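Further: peptides expressed intracellularly from a pBAD plasmid library in pooled LB shake-flask culture, induced with 0.3% L-arabinose, DNA abundance read by NGS, three biological replicates, DESeq2 with apeglm shrinkage.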

The sequences below were run on Escherichia coli TOP10 (assay: shrunken log2 fold change of peptide-encoding DNA abundance (4.5 h post-induction vs induction); higher = less antimicrobial activity (less host growth inhibition)). Settings: time post-induction: 4.5 h; library: site-saturation at positions 5, 18, 19, 20.
RRIRSRPPRLPRPRPRPPYWPRP was tested, and the “shrunken log2 fold change” value was 0.3. For RRIRIRPPRLPRPRPRPGWSPRP, the “shrunken log2 fold change” value was 0.312. In the case of RRIRYRPPRLPRPRPRPHCHPRP, the “shrunken log2 fold change” value is reported as -0.735. RRIRSRPPRLPRPRPRPMPIPRP was tested, and the “shrunken log2 fold change” value was -0.109. For RRIRDRPPRLPRPRPRPQYAPRP, the “shrunken log2 fold change” value was -0.101. For RRIRGRPPRLPRPRPRPNGWPRP, the “shrunken log2 fold change” value was 0.477. In the case of RRIRYRPPRLPRPRPRPKQIPRP, the “shrunken log2 fold change” value is reported as -0.456. With RRIRDRPPRLPRPRPRPPLIPRP the “shrunken log2 fold change” value was 0.129. With RRIRLRPPRLPRPRPRPCVAPRP the “shrunken log2 fold change” value was 0.238. RRIRNRPPRLPRPRPRPVVPPRP was tested, and the “shrunken log2 fold change” value was 0.0751. With RRIRRRPPRLPRPRPRPCGHPRP the “shrunken log2 fold change” value was -0.0448. RRIRRRPPRLPRPRPRPLWFPRP was tested, and the “shrunken log2 fold change” value was 0.396. In the case of RRIRNRPPRLPRPRPRPNSYPRP, the “shrunken log2 fold change” value is reported as -0.299. In the case of RRIRERPPRLPRPRPRPSGEPRP, the “shrunken log2 fold change” value is reported as -0.157. RRIRGRPPRLPRPRPRPMLIPRP was tested, and the “shrunken log2 fold change” value was 0.312. In the case of RRIRARPPRLPRPRPRPMLYPRP, the “shrunken log2 fold change” value is reported as 0.249. With RRIRFRPPRLPRPRPRPKQTPRP the “shrunken log2 fold change” value was 1.01. RRIRKRPPRLPRPRPRPHPRPRP was tested, and the “shrunken log2 fold change” value was 1.27. With RRIRPRPPRLPRPRPRPLEVPRP the “shrunken log2 fold change” value was -0.007. With RRIRWRPPRLPRPRPRPEYYPRP the “shrunken log2 fold change” value was -0.13. For RRIRRRPPRLPRPRPRPVQVPRP, the “shrunken log2 fold change” value was 0.189. RRIRWRPPRLPRPRPRPDIWPRP was tested, and the “shrunken log2 fold change” value was 0.642. In the case of RRIRVRPPRLPRPRPRPQKSPRP, the “shrunken log2 fold change” value is reported as -0.162. For RRIRRRPPRLPRPRPRPPSQPRP, the “shrunken log2 fold change” value was 0.46. RRIRGRPPRLPRPRPRPVQDPRP was tested, and the “shrunken log2 fold change” value was 0.197. With RRIRYRPPRLPRPRPRPYNSPRP the “shrunken log2 fold change” value was -0.102. For RRIRVRPPRLPRPRPRPPKYPRP, the “shrunken log2 fold change” value was -0.416. In the case of RRIRKRPPRLPRPRPRPEAHPRP, the “shrunken log2 fold change” value is reported as 0.151. RRIRPRPPRLPRPRPRPCRWPRP was tested, and the “shrunken log2 fold change” value was 0.0987. In the case of RRIRTRPPRLPRPRPRPKAAPRP, the “shrunken log2 fold change” value is reported as 0.565. In the case of RRIRRRPPRLPRPRPRPLDIPRP, the “shrunken log2 fold change” value is reported as -0.121. For RRIRHRPPRLPRPRPRPGIRPRP, the “shrunken log2 fold change” value was -0.00441. RRIRMRPPRLPRPRPRPLPMPRP was tested, and the “shrunken log2 fold change” value was 0.429. RRIRPRPPRLPRPRPRPMHNPRP was tested, and the “shrunken log2 fold change” value was -0.202. With RRIRFRPPRLPRPRPRPKKTPRP the “shrunken log2 fold change” value was 0.0466. With RRIRCRPPRLPRPRPRPDRRPRP the “shrunken log2 fold change” value was 0.0327. With RRIRPRPPRLPRPRPRPLSGPRP the “shrunken log2 fold change” value was 0.0234. In the case of RRIRMRPPRLPRPRPRPVQDPRP, the “shrunken log2 fold change” value is reported as 0.32. With RRIRERPPRLPRPRPRPIGQPRP the “shrunken log2 fold change” value was 0.000367. RRIRFRPPRLPRPRPRPELNPRP was tested, and the “shrunken log2 fold change” value was 0.164. RRIRARPPRLPRPRPRPQFWPRP was tested, and the “shrunken log2 fold change” value was 0.148. RRIRYRPPRLPRPRPRPKRQPRP was tested, and the “shrunken log2 fold change” value was 0.00924. In the case of RRIRFRPPRLPRPRPRPSKHPRP, the “shrunken log2 fold change” value is reported as 0.0257. For RRIRPRPPRLPRPRPRPLSSPRP, the “shrunken log2 fold change” value was 0.00895. For RRIRQRPPRLPRPRPRPACDPRP, the “shrunken log2 fold change” value was 0.0239. In the case of RRIRGRPPRLPRPRPRPLPQPRP, the “shrunken log2 fold change” value is reported as 0.927. With RRIRIRPPRLPRPRPRPCKTPRP the “shrunken log2 fold change” value was -0.168. RRIRFRPPRLPRPRPRPICCPRP was tested, and the “shrunken log2 fold change” value was -0.134. For RRIRNRPPRLPRPRPRPQDRPRP, the “shrunken log2 fold change” value was 0.0155. RRIRPRPPRLPRPRPRPELIPRP was tested, and the “shrunken log2 fold change” value was 0.0313. For RRIRPRPPRLPRPRPRPVTFPRP, the “shrunken log2 fold change” value was -0.186. In the case of RRIRGRPPRLPRPRPRPNLVPRP, the “shrunken log2 fold change” value is reported as 0.0862. For RRIRHRPPRLPRPRPRPYLAPRP, the “shrunken log2 fold change” value was -0.00514. For RRIRYRPPRLPRPRPRPVEDPRP, the “shrunken log2 fold change” value was -0.0671. With RRIRWRPPRLPRPRPRPEIDPRP the “shrunken log2 fold change” value was 0.0771. For RRIRSRPPRLPRPRPRPVGMPRP, the “shrunken log2 fold change” value was 0.12. With RRIRSRPPRLPRPRPRPKIGPRP the “shrunken log2 fold change” value was -0.0115. With RRIRKRPPRLPRPRPRPQGIPRP the “shrunken log2 fold change” value was 0.114. RRIRIRPPRLPRPRPRPFKLPRP was tested, and the “shrunken log2 fold change” value was -0.597. RRIRGRPPRLPRPRPRPRMQPRP was tested, and the “shrunken log2 fold change” value was 0.494. For RRIRCRPPRLPRPRPRPNSWPRP, the “shrunken log2 fold change” value was 0.0889. In the case of RRIRIRPPRLPRPRPRPYEWPRP, the “shrunken log2 fold change” value is reported as -0.00783. In the case of RRIRVRPPRLPRPRPRPDQGPRP, the “shrunken log2 fold change” value is reported as 0.00375. With RRIRIRPPRLPRPRPRPEWTPRP the “shrunken log2 fold change” value was -0.0261. For RRIRKRPPRLPRPRPRPFEIPRP, the “shrunken log2 fold change” value was -0.201. In the case of RRIRMRPPRLPRPRPRPIEIPRP, the “shrunken log2 fold change” value is reported as -0.0115. RRIRDRPPRLPRPRPRPWAAPRP was tested, and the “shrunken log2 fold change” value was 0.00948. In the case of RRIRNRPPRLPRPRPRPASHPRP, the “shrunken log2 fold change” value is reported as 0.0783. RRIRQRPPRLPRPRPRPTPWPRP was tested, and the “shrunken log2 fold change” value was 0.619. With RRIRDRPPRLPRPRPRPSQEPRP the “shrunken log2 fold change” value was 0.111. RRIRHRPPRLPRPRPRPTLWPRP was tested, and the “shrunken log2 fold change” value was 0.246. With RRIRHRPPRLPRPRPRPAYQPRP the “shrunken log2 fold change” value was -0.0802. In the case of RRIRWRPPRLPRPRPRPILIPRP, the “shrunken log2 fold change” value is reported as -0.037. For RRIRLRPPRLPRPRPRPIRPPRP, the “shrunken log2 fold change” value was -0.113. RRIRLRPPRLPRPRPRPYYYPRP was tested, and the “shrunken log2 fold change” value was -1.03.
